{
  "source": "paper PMC6017123",
  "about": "“HnRNPA1 Specifically Recognizes the Base of Nucleotide at the Loop of RNA G-Quadruplex”",
  "key": {"hnRNPA1 [1]": {"biological_target": "T1, hnRNPA1 (UniProt P09651 1-251+304-372, internal_change)", "T1 sequence (P09651 other isoform, or with tags, fused parts or gaps)": "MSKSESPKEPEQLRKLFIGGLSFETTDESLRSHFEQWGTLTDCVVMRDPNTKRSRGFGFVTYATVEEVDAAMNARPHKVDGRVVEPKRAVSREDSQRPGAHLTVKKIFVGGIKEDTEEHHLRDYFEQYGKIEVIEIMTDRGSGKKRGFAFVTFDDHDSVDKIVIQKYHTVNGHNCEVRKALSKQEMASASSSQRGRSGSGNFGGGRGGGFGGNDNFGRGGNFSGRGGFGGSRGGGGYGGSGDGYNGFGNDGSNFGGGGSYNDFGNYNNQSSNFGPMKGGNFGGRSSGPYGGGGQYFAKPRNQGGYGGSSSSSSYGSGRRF", "assay": "CD; peak shift 265 to 260 nm on protein addition; Na+; EMSA: 10 mM Tris-HCl pH 7.0, 100 mM NaCl, 0.1 mg/mL BSA, 5 mM DTT, 10% glycerol, 30 min room temperature; 8% native PAGE, 1x TBE + 20 mM NaCl, 80 V, 4 C", "details": "protein: recombinant; (pET-15b, Ni-NTA); label: 32P (T4 PNK, 5'); intermolecular dimeric parallel G-quadruplex, 2 strands"}, "hnRNPA1 [2]": {"biological_target": "T1, hnRNPA1", "assay": "EMSA; 100 mM Na+; EMSA: 10 mM Tris-HCl pH 7.0, 100 mM NaCl, 0.1 mg/mL BSA, 5 mM DTT, 10% glycerol, 30 min room temperature; 8% native PAGE, 1x TBE + 20 mM NaCl, 80 V, 4 C", "details": "protein: recombinant; (pET-15b, Ni-NTA); label: 32P (T4 PNK, 5'); intermolecular dimeric parallel G-quadruplex, 2 strands"}},
  "data": [
    {"binder": "UUAGGGUUAGGG (XNA, 2'-O-methyl at positions 7-9 (UmUmAm))", "note": "[2'-O-Me-loop-Gq]", "values": [
      {"measurement": "binding result", "setting": "hnRNPA1 [1]", "result": "binds"}
    ]},
    {"binder": "UUAGGGUUAGGG (structured_RNA)", "note": "[Native-RNA-Gq]", "values": [
      {"measurement": "binding result", "setting": "hnRNPA1 [2]", "result": "binds"}
    ]}
  ]
}
